Data published in the supplement of paper PMC10567573.
± gives the standard deviation.

Experiment: protein stability index of a GFP-peptide fusion (GPS, HEK-293T) (PSI 1-6); higher = more stable
Conditions: c terminus: a fixed tail appended
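Also: 24-mer peptide tiles fused after GFP, lentivirally expressed, FACS-sorted into six equal bins by GFP/DsRed ratio, decoded by Illumina sequencing, PSI is the read-weighted mean bin number.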

Sequence	protein stability index (treatment: DMSO)	protein stability index (treatment: MLN4924 1 uM, 8 h)
RIFAQYMVPHNLETTERMKCLYYL [PDS5B]	2.91 ± 0.62	2.36 ± 0.43
QHKDQTAALPLAAEETANLPPSPP [MAP2]	5.49 ± 0.086	5.45 ± 0.12
IDKGDESWVTDMCKVGASSDPCGQ [PNLIPRP1]	4.52 ± 0.48	4.66 ± 0.36
VFAHCKEAPSTASSTPDSTEGGND [RTN2]	5.42 ± 0.33	5.37 ± 0.37
IAILLYKSKPDRKRAESDSRKSSI [PTPRD]	1.75 ± 0.23	1.92 ± 0.44
VKTKKNAPSATIHQGEEEGPLDIW [FBXO34]	4.21 ± 0.2	4.4 ± 0.25
EQELLRRQQRLNQLEKPPEKEEDH [FAM107A]	5.62 ± 0.16	5.54 ± 0.12
QPCNPPAPAGDKGFQPPSPSLRPR [DMRTC1]	5.27 ± 0.14	5.15 ± 0.19
TSNSDDNMLKNIELFDKLSLRFNG [KCTD10]	3.07 ± 0.3	3.18 ± 0.39
VETELQRRNEETPEEGQQPWLCGE [GDAP1]	5.38 ± 0.1	5.5 ± 0.15
PRGKPPLNTRSQAPLLRWVLTLSF [HMOX1]	2.81 ± 0.28	3.1 ± 0.61
VPQIFKYGETCFPKGRFERKRNPS [ZNF24]	3.8 ± 0.76	3.93 ± 1.1
KQQWEIMHKHNETSQKIAARAFAQ [RSPH3]	3.41 ± 0.2	3.38 ± 0.14
EPPPEVWQVLKTHPGDPRFQCSLW [POLD4]	2.45 ± 0.42	2.55 ± 0.31
VDKDQPSILNSCEDPVPGMLFFLP [FBXO34]	3.32 ± 0.39	3.02 ± 0.36
YAADRNCMWSKKCSGVACLVKDNP [WASL]	3.08 ± 0.95	2.49 ± 0.3
SDMDRNKTILGNAHDNSEELERAR [ANKRD44]	5.58 ± 0.16	5.57 ± 0.3
LGFARRNWGNGKRPNLETYYERVL [GDAP1]	2.38 ± 0.38	2.36 ± 0.57
WNFDFVTETPLEGDFAWERVRGLG [CDKN1A]	2.54 ± 0.42	2.8 ± 0.39
PLPKRVAKVPRPPSTLLPTPEEQG [FOXJ1]	4.97 ± 0.29	4.82 ± 0.34
GMGGIQNEKETMQSLNDRLASYLD [KRT18]	3.86 ± 0.18	3.84 ± 0.23
RSSALWSEMLDITMKESLTTREIR [NET1]	3.13 ± 0.23	3.23 ± 0.23

Sequence	protein stability index (treatment: DMSO)	protein stability index (treatment: MLN4924 1 uM, 8 h)
HRTRLQDLRVLVSNASEDTRRLRL [SCARA5]	3.29 ± 0.11	3.57 ± 0.15
YGQFTCEGCKSFFKRSVRRNLSYT [NR2F2]	2.33 ± 0.12	2.33 ± 0.21
KDLFEEKIKKSPLTICYPEYAGSN [GNAI1]	3.96 ± 0.36	4.09 ± 0.21
LGSDDINVVTCAAGILSNLTCNNY [CTNNB1]	2.27 ± 0.22	2.37 ± 0.22
LLDNPLCADVLFILQDQEHIFAHR [RHOBTB1]	2.36 ± 0.35	2.17 ± 0.11
FMHENLYFTNRKVNSVCWASLNHL [DCAF4]	2.69 ± 0.48	2.46 ± 0.53
LTHLSLSRRASESSLSSESSESSD [CDC25B]	5.38 ± 0.24	5.4 ± 0.12
EPKNYGSYSTQASAAAATAELLKK [SCAMP3]	4.84 ± 0.18	4.83 ± 0.16
GKSPDTNYLFMGDYVDRGYYSVET [PPP2CA]	2.73 ± 0.28	2.87 ± 0.17
KCGNCQTKLHDIDGVPHLILIASR [KMT5A]	2.35 ± 0.46	2.51 ± 0.41
VYCGAGVQKEHEEYMKNLLKVGGI [PCMTD2]	2.75 ± 0.22	2.9 ± 0.28
PTQQDVLRTRVKTTGIVETHFTFK [GNAI1]	3.05 ± 0.42	3.51 ± 0.37
LNEDTIQDVVQAADLLLLTDLKTL [GAN]	3.03 ± 0.31	3.16 ± 0.44
AVETEGSGSRHPPWARGCGMFTFL [SLC2A12]	2.11 ± 0.16	2.13 ± 0.28
PNAFIGSDVVDWLYHNVEGFTDRR [DVL3]	3.13 ± 0.26	3.15 ± 0.32
QALQHVQASCDEAHKMKFSDLFSL [INTS3]	2.86 ± 0.39	2.95 ± 0.33
TLEEKFSDVHPVALNFMKGCLKMN [CDKL4]	3.08 ± 0.34	3.16 ± 0.27
TTLGPKLASQALTPPPGPASAQPL [TFE3]	4.4 ± 0.48	4.4 ± 0.18
TQQWTAICPLKERRFGAVACGVAM [GAN]	2.83 ± 0.37	2.52 ± 0.55
QEEAIAQFPYVEFTGRDSITCLTC [TMEM106C]	2.5 ± 0.21	2.57 ± 0.24
VGLAAVNSMPVDNRNHNEGMVTRC [CHGB]	4.27 ± 0.23	4.3 ± 0.37
VTPEAKNLINQMLTINPAKRITAH [CAMK2B]	2.8 ± 0.14	2.95 ± 0.3
